Consider 40 sequences from the supplement of paper PMC7877785.

This data set in a line: self-splicing fitness, log relative to wild type (ln ratio); higher = more splicing; Tetrahymena group I intron in knt gene, E. coli kanamycin selection, DiMSum; sequences stand for … in CUCUCU…GGAGGGAAAAGUUAUCAGGCAUGCACCUGGUAGCUAGUCUUUAAACCAAUAGAUUGCAUCGGUUUAAAAGGCAAGACCGUCAAAUUGCGGGAAAGGGGUCAACAGCCGUUCAGUACCAAGUCUCAGGGGAAACUUUGAGAUGGCCUUGCAAAGGGUAUGGUAAUAAGCUGACGGACAUGGUCCUAACCACGCAGCCAAGUCCUAAGUCAACAGAUCUUCUGUUGAUAUGGAUGCAGUUCACAGACUAAAUGUCGGUCGGGGAAGAUGUAUUCUUCUCAUAAGAUAUAGUCGGACCUCUCCUUAAUGGGAGCUAGCGGAUGAAGUGAUGCAACACUGGAGCCGCUGGGAACUAAUUUGUAUGCGAAAGUAUAUUGAUUAGUUUUGGAGUACUCGUGGUCG
The essentials: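 DiMSum derived fitness as the error-weighted combination of fold changes across replicates, kanamycin versus no kanamycin, normalised to wild type. E. coli BL21(DE3) held the library, which randomised all eight P1ex-region intron nucleotides within the knt kanamycin-resistance gene on pET-22b(+). Six replicate transformations grew overnight at 37°C or 30°C on LB agar with or without 25 μg/mL kanamycin, also containing 100 μg/mL carbenicillin, 50 μM IPTG and 0.2% rhamnose, and pooled colonies were amplicon-sequenced on an Illumina HiSeq 2500.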

± gives the uncertainty stated by the source.

On to AGGCAGCAAUAUUACGCACU, for which the “self-splicing fitness (ln)” value was -1.3 ± 0.11 (30 °C) and -0.863 ± 0.17 (37 °C).
On the same counts, the results for AGUCAGCAAUAUUACGGACU are -2.86 ± 0.27 and -2.27 ± 0.29.
In the case of UCUAAGCAAUAUUACGACUU, the “self-splicing fitness (ln)” value (30 °C) is -3.9 ± 0.28 and the “self-splicing fitness (ln)” value (37 °C) was -3.44 ± 0.37.
On the same counts, the results for UGAAAGCAAUAUUACGGUUA are -0.156 ± 0.07 and -0.217 ± 0.064.
The like results for CCGAAGCAAUAUUACGAAAA were, in that order, -1.87 ± 0.26 and -1.09 ± 0.27.
The like results for CUGCAGCAAUAUUACGAGAG were, in that order, -1.64 ± 0.12 and -2.96 ± 0.22.
As for GGGAAGCAAUAUUACGUUAA, the “self-splicing fitness (ln)” value (30 °C) was -2.82 ± 0.18 and the “self-splicing fitness (ln)” value (37 °C) is -1.73 ± 0.19.
In the case of GACUAGCAAUAUUACGAGCA, the “self-splicing fitness (ln)” value runs as follows: (30 °C) -1.51 ± 0.14; (37 °C) -0.564 ± 0.13.
On the same counts, the results for AUCAAGCAAUAUUACGAGUG are -2.19 ± 0.1 and -1.28 ± 0.14.
The like results for UUGAAGCAAUAUUACGAGCG were, in that order, -0.107 ± 0.089 and 0.65 ± 0.14.
The like results for UGAUAGCAAUAUUACGCGCU were, in that order, -0.577 ± 0.11 and -0.36 ± 0.14.
In the case of AUGAAGCAAUAUUACGCGGA, the “self-splicing fitness (ln)” value is, setting by setting: (30 °C) -0.591 ± 0.1; (37 °C) -0.105 ± 0.12.
For CUAUAGCAAUAUUACGUCGG, the “self-splicing fitness (ln)” value was -1.97 ± 0.2 (30 °C) and -1.33 ± 0.2 (37 °C).
On the same counts, the results for GUAGAGCAAUAUUACGCAAA are -2.21 ± 0.16 and -1.59 ± 0.17.
On the same counts, the results for CUCGAGCAAUAUUACGCACA are -4.64 ± 0.3 and -1.94 ± 0.19.
On the same counts, the results for CAAGAGCAAUAUUACGGGAA are -2.06 ± 0.11 and -3.01 ± 0.18.
For the sequence UUCGAGCAAUAUUACGAGAU, the “self-splicing fitness (ln)” value was -3.95 ± 0.35 (30 °C) and -2.34 ± 0.31 (37 °C).
On the same counts, the results for UAUUAGCAAUAUUACGUCCG are -0.732 ± 0.16 and -0.925 ± 0.19.
With GAGAAGCAAUAUUACGGUGA, the “self-splicing fitness (ln)” value (30 °C) is -1.88 ± 0.15 and the “self-splicing fitness (ln)” value (37 °C) was -0.755 ± 0.15.
The like results for AUACAGCAAUAUUACGUAUU were, in that order, -3.18 ± 0.16 and -2.54 ± 0.2.
The like results for CCCGAGCAAUAUUACGGCAG were, in that order, -2.53 ± 0.29 and -2.65 ± 0.44.
On the same counts, the results for UCUGAGCAAUAUUACGGGUG are -3.83 ± 0.19 and -2.42 ± 0.14.
Turning to AAUUAGCAAUAUUACGCAAG, the “self-splicing fitness (ln)” value is -0.991 ± 0.13 (30 °C) and -1.4 ± 0.19 (37 °C).
Consider AUGCAGCAAUAUUACGGAAU, for which the “self-splicing fitness (ln)” value reads like this: (30 °C) -2.37 ± 0.088; (37 °C) -0.752 ± 0.093.
On to CUAAAGCAAUAUUACGCCUA, for which, for the setting “30 °C”, the “self-splicing fitness (ln)” value was -3.27 ± 0.23.
As to CCGAAGCAAUAUUACGAUAA, the “self-splicing fitness (ln)” value (30 °C) was -2.83 ± 0.12 and the “self-splicing fitness (ln)” value (37 °C) was -2.96 ± 0.25.
As for ACUGAGCAAUAUUACGCUAC, the “self-splicing fitness (ln)” value (30 °C) was -3.24 ± 0.24.
Turning to ACCAAGCAAUAUUACGAAUG, the “self-splicing fitness (ln)” value (30 °C) was -3.18 ± 0.1 and the “self-splicing fitness (ln)” value (37 °C) was -1.78 ± 0.1.
On the same counts, the results for CUUUAGCAAUAUUACGUGGG are -3.1 ± 0.17 and -2.96 ± 0.27.
With CGAAAGCAAUAUUACGCCUG, the “self-splicing fitness (ln)” value (30 °C) was -0.16 ± 0.095 and the “self-splicing fitness (ln)” value (37 °C) is 0.392 ± 0.11.
UUGGAGCAAUAUUACGAGAA: the “self-splicing fitness (ln)” value (37 °C) was -1.78 ± 0.44.
For the sequence GAUUAGCAAUAUUACGCUUG, the “self-splicing fitness (ln)” value reads like this: (30 °C) -0.829 ± 0.079; (37 °C) -0.445 ± 0.093.
Consider ACUCAGCAAUAUUACGACCA, for which the “self-splicing fitness (ln)” value (30 °C) was -1.19 ± 0.084 and the “self-splicing fitness (ln)” value (37 °C) is -0.64 ± 0.12.
CGCUAGCAAUAUUACGAUCU: the “self-splicing fitness (ln)” value runs as follows: (30 °C) -0.867 ± 0.1; (37 °C) -1.49 ± 0.11.
As for AUCAAGCAAUAUUACGACGC, the “self-splicing fitness (ln)” value runs as follows: (30 °C) -0.837 ± 0.099; (37 °C) -0.402 ± 0.12.
On to ACUUAGCAAUAUUACGACCC, for which, where the note is “30 °C”, the “self-splicing fitness (ln)” value amounted to 0.555 ± 0.32.
Regarding AUGGAGCAAUAUUACGAUUA, the “self-splicing fitness (ln)” value (30 °C) was -1.13 ± 0.36.
For the sequence CCGCAGCAAUAUUACGUAUA, the “self-splicing fitness (ln)” value runs as follows: (30 °C) -3.6 ± 0.16; (37 °C) -3.03 ± 0.19.
As for GAUUAGCAAUAUUACGUCUG, the “self-splicing fitness (ln)” value by setting is: (30 °C) -2.47 ± 0.23; (37 °C) -1.19 ± 0.16.
Consider UGCGAGCAAUAUUACGGAGU, for which the “self-splicing fitness (ln)” value (37 °C) is -2.08 ± 0.3.
